According to KR20230078152A:

Target: human PSMA (prostate-specific membrane antigen) expressed on LNCaP cells (human) (UniProt Q04609)
Test: flow cytometry on LNCaP cells, isotype control 10μg/mL, 4℃

human PSMA (prostate-specific membrane antigen) expressed on LNCaP cells (human), sequence (Q04609 whole entry): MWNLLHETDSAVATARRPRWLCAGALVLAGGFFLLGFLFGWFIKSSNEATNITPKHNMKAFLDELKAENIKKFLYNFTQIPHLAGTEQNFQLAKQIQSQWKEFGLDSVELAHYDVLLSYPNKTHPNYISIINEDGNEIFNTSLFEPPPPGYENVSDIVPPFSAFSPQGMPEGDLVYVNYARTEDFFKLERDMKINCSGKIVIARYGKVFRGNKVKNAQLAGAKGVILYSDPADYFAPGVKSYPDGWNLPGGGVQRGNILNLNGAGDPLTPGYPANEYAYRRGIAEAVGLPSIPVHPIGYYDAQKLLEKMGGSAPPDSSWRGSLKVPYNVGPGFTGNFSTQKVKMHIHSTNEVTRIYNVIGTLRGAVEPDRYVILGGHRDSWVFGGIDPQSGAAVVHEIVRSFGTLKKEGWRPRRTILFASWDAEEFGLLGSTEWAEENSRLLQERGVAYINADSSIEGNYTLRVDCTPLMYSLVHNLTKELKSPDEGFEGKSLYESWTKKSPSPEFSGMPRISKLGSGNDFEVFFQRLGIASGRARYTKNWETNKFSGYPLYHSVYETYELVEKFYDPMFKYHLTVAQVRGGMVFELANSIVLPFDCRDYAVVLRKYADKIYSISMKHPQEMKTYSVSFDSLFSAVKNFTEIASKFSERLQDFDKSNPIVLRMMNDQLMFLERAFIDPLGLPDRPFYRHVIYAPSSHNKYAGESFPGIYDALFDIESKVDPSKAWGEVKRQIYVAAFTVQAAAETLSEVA

With “Mouse IgG Isotype Control (ThermoFisher, cat.No.02-6502) (antibody)” the Mean FL was 3440 Mean FL.
